Measurements as given in US20260327578A1, “TRANSGLUTAMINASES AND USES THEREOF” (CURIE CO. INC., priority 2023, published 2026).

B1: A13: Tgase variant S2P Q50S Q51E Q74A K91H Q124L K151R K152R F170I N282M G283A H289I S299V relative to SEQ ID NO: 2 (protein, UniProt P81453 77-407, looked up, variant S2P Q50S Q51E Q74A K91H Q124L K151R K152R F170I N282M G283A H289I S299V)
Protein-glutamine …: DPDDRVTPPAEPLDRMPDPYRPSYGRAETVVNNYIRKWQQVYSHRDGRKSEMTEEQREWLSYGCVGVTWVNSGAYPTNRLAFASFDEDRFHNELKNGRPRSGETRAEFEGRVAKESFDEEKGFLRAREVASVMNRALENAHDESAYLDNLRRELANGNDALRNEDARSPIYSALRNTPSFKERNGGNHDPSRMKAVIYSKHFWSGQDRSSSADKRKYGDPDAFRPAPGTGLVDMSRDRNIPRSPTSPGEGFVNFDYGWFGAQTEADADKTVWTHGNHYHAPMASLGAMIVYESKFRNWVEGYSDFDRGAYVITFIPKSWNTAPDKVKQGWP
B2: A17: Tgase variant S2P D14N Q50S Q74A K91H Q124L K151R K152R N282M G283A relative to SEQ ID NO: 2 (protein, UniProt P81453 77-407, looked up, variant S2P D14N Q50S Q74A K91H Q124L K151R K152R N282M G283A)
Protein-glutamine …: DPDDRVTPPAEPLNRMPDPYRPSYGRAETVVNNYIRKWQQVYSHRDGRKSQMTEEQREWLSYGCVGVTWVNSGAYPTNRLAFASFDEDRFHNELKNGRPRSGETRAEFEGRVAKESFDEEKGFLRAREVASVMNRALENAHDESAYLDNLRRELANGNDALRNEDARSPFYSALRNTPSFKERNGGNHDPSRMKAVIYSKHFWSGQDRSSSADKRKYGDPDAFRPAPGTGLVDMSRDRNIPRSPTSPGEGFVNFDYGWFGAQTEADADKTVWTHGNHYHAPMASLGAMHVYESKFRNWSEGYSDFDRGAYVITFIPKSWNTAPDKVKQGWP
B3: A2: Tgase variant S2P Q50S Q74A K91H Q124L K151R K152R N282E S284A relative to SEQ ID NO: 2 (protein, UniProt P81453 77-407, looked up, variant S2P Q50S Q74A K91H Q124L K151R K152R N282E S284A)
Protein-glutamine …: DPDDRVTPPAEPLDRMPDPYRPSYGRAETVVNNYIRKWQQVYSHRDGRKSQMTEEQREWLSYGCVGVTWVNSGAYPTNRLAFASFDEDRFHNELKNGRPRSGETRAEFEGRVAKESFDEEKGFLRAREVASVMNRALENAHDESAYLDNLRRELANGNDALRNEDARSPFYSALRNTPSFKERNGGNHDPSRMKAVIYSKHFWSGQDRSSSADKRKYGDPDAFRPAPGTGLVDMSRDRNIPRSPTSPGEGFVNFDYGWFGAQTEADADKTVWTHGNHYHAPEGALGAMHVYESKFRNWSEGYSDFDRGAYVITFIPKSWNTAPDKVKQGWP
B4: A18: Tgase variant S2P Q50S Q51A Q74A K91H Q124L K151R K152R N282M G283A H289I relative to SEQ ID NO: 2 (protein, UniProt P81453 77-407, looked up, variant S2P Q50S Q51A Q74A K91H Q124L K151R K152R N282M G283A H289I)
Protein-glutamine …: DPDDRVTPPAEPLDRMPDPYRPSYGRAETVVNNYIRKWQQVYSHRDGRKSAMTEEQREWLSYGCVGVTWVNSGAYPTNRLAFASFDEDRFHNELKNGRPRSGETRAEFEGRVAKESFDEEKGFLRAREVASVMNRALENAHDESAYLDNLRRELANGNDALRNEDARSPFYSALRNTPSFKERNGGNHDPSRMKAVIYSKHFWSGQDRSSSADKRKYGDPDAFRPAPGTGLVDMSRDRNIPRSPTSPGEGFVNFDYGWFGAQTEADADKTVWTHGNHYHAPMASLGAMIVYESKFRNWSEGYSDFDRGAYVITFIPKSWNTAPDKVKQGWP
B5: A16: Tgase variant S2P D18T Q50S Q74A K91H Q124L S131R V132L K151R K152R N282M G283A relative to SEQ ID NO: 2 (protein, UniProt P81453 77-407, looked up, variant S2P D18T Q50S Q74A K91H Q124L S131R V132L K151R K152R N282M G283A)
Protein-glutamine …: DPDDRVTPPAEPLDRMPTPYRPSYGRAETVVNNYIRKWQQVYSHRDGRKSQMTEEQREWLSYGCVGVTWVNSGAYPTNRLAFASFDEDRFHNELKNGRPRSGETRAEFEGRVAKESFDEEKGFLRAREVARLMNRALENAHDESAYLDNLRRELANGNDALRNEDARSPFYSALRNTPSFKERNGGNHDPSRMKAVIYSKHFWSGQDRSSSADKRKYGDPDAFRPAPGTGLVDMSRDRNIPRSPTSPGEGFVNFDYGWFGAQTEADADKTVWTHGNHYHAPMASLGAMHVYESKFRNWSEGYSDFDRGAYVITFIPKSWNTAPDKVKQGWP
B6: A1: Tgase variant S2P Q50S Q74A K91H Q124L K151R K152R N282R relative to SEQ ID NO: 2 (protein, UniProt P81453 77-407, looked up, variant S2P Q50S Q74A K91H Q124L K151R K152R N282R)
Protein-glutamine …: DPDDRVTPPAEPLDRMPDPYRPSYGRAETVVNNYIRKWQQVYSHRDGRKSQMTEEQREWLSYGCVGVTWVNSGAYPTNRLAFASFDEDRFHNELKNGRPRSGETRAEFEGRVAKESFDEEKGFLRAREVASVMNRALENAHDESAYLDNLRRELANGNDALRNEDARSPFYSALRNTPSFKERNGGNHDPSRMKAVIYSKHFWSGQDRSSSADKRKYGDPDAFRPAPGTGLVDMSRDRNIPRSPTSPGEGFVNFDYGWFGAQTEADADKTVWTHGNHYHAPRGSLGAMHVYESKFRNWSEGYSDFDRGAYVITFIPKSWNTAPDKVKQGWP
B7: A14: Tgase variant S2P Q50S Q51E Q74A K91H Q124L Y146F K151R K152R N282M G283A H289I S299V relative to SEQ ID NO: 2 (protein, UniProt P81453 77-407, looked up, variant S2P Q50S Q51E Q74A K91H Q124L Y146F K151R K152R N282M G283A H289I S299V)
Protein-glutamine …: DPDDRVTPPAEPLDRMPDPYRPSYGRAETVVNNYIRKWQQVYSHRDGRKSEMTEEQREWLSYGCVGVTWVNSGAYPTNRLAFASFDEDRFHNELKNGRPRSGETRAEFEGRVAKESFDEEKGFLRAREVASVMNRALENAHDESAFLDNLRRELANGNDALRNEDARSPFYSALRNTPSFKERNGGNHDPSRMKAVIYSKHFWSGQDRSSSADKRKYGDPDAFRPAPGTGLVDMSRDRNIPRSPTSPGEGFVNFDYGWFGAQTEADADKTVWTHGNHYHAPMASLGAMIVYESKFRNWVEGYSDFDRGAYVITFIPKSWNTAPDKVKQGWP
B8: A15: Tgase variant S2P Q50S Q74A K91H K95E Q124L K151R K152R N282M G283A relative to SEQ ID NO: 2 (protein, UniProt P81453 77-407, looked up, variant S2P Q50S Q74A K91H K95E Q124L K151R K152R N282M G283A)
Protein-glutamine …: DPDDRVTPPAEPLDRMPDPYRPSYGRAETVVNNYIRKWQQVYSHRDGRKSQMTEEQREWLSYGCVGVTWVNSGAYPTNRLAFASFDEDRFHNELENGRPRSGETRAEFEGRVAKESFDEEKGFLRAREVASVMNRALENAHDESAYLDNLRRELANGNDALRNEDARSPFYSALRNTPSFKERNGGNHDPSRMKAVIYSKHFWSGQDRSSSADKRKYGDPDAFRPAPGTGLVDMSRDRNIPRSPTSPGEGFVNFDYGWFGAQTEADADKTVWTHGNHYHAPMASLGAMHVYESKFRNWSEGYSDFDRGAYVITFIPKSWNTAPDKVKQGWP

Key:
N,N-dimethylcasein [1] = experiment: Productivity: total product formed after 24 hours (protein functionalization assay); type: biochemical; set-up: key: −: a reduction in activity; +: an improvement between 1.2 and 2-fold; ++: an improvement between 2 and 5-fold; +++: an improvement greater than 5-fold; conditions: improvement relative to wild-type Tgase (SEQ ID NO: 2); total product after 24 h
Method: (§1) Enzymatic “productivity” is a measure of product formation or substrate disappearance over time, at a prescribed temperature under specified reaction conditions. It is the measure both the durability and reaction yield of the enzyme variant. In this instance, productivity is defined as total product formed over 24-hours at a constant substrate concentration when the enzyme is the rate limiting factor. The time is defined as 24 hours, which represents approaching or surpassing burnout, denaturation, or self-reaction of the enzyme variant. In other words, variants with higher productivity deliver a higher product yield in 24-hours than variants with lower productivity produce in the same period of time. “Rate” refers to the initial rate for an enzymatic reaction, at a prescribed temperature under specified reaction conditions. The enzyme produces product at an initial rate that is approximately linear for a short period after the start of the reaction. When concentrations of enzyme and substrate are the same across the sample set, initial rates between enzyme variants can be compared. In this instance, the linear range for production of product occurs in one hour. Enzyme variants with faster initial rates deliver a higher product yield in one hour than variants with slower initial rates produce at the same time-period. In some cases, improvements to initial rates also deliver a more productive variant. In some cases, improvements to initial rates result in faster decay of the enzyme variant reducing overall enzymatic productivity. Productivity and rate may be assessed as described in Example 2.
(§2) Table 6 depicts variants of Streptomyces mobaraensis Tgase and improvement to productivity and/or rate relative to wild-type Tgase (SEQ ID NO. 2) as determined in Example 3. Numbering of amino acid positions is in reference to the mature S. mobaraensis Tgase sequence depicted in SEQ ID NO. 2. A “−” indicates a reduction in activity. A “+” indicates an improvement between 1.2 and 2-fold. A “++” indicates an improvement between 2 and 5-fold. A “+++” indicates an improvement greater than 5-fold.
To evaluate productivity, total product formed was measured after 24-hours of incubation, using the assay described in Example 4B. The time is defined as 24 hours which represents approaching or surpassing burnout, denaturation, or self-reaction of the enzyme variant.
(§3) Protein functionalization by Tgase variants was determined by the fluorogenic labeling of casein using monodansylcadaverine (e.g., a commercially available kit such as the Transglutaminase Fluorogenic Activity Assay Kit, T036, Zedira, Germany). Tgase activity was monitored by measuring fluorescence (excitation wavelength 332 nm; emission wavelength 500 nm) using a BioTek Synergy H1 microplate reader. Transglutaminase-catalyzed covalent coupling (crosslinking) of monodansylcadaverine with N,N-dimethylcasein produces a product that causes a shift in intensity and wavelength of fluorescence of the dansyl group now linked to the casein. The relative transglutaminase activity is shown by increase of fluorescence intensity over time. Enzyme variant loading was optimized based on expression levels, ensuring enzyme was the rate limiting factor. Briefly, cell-free reactions (set up as described in Example 2A) were first diluted 10-fold using phosphate buffer, pH 7.4, and a 5 microliter aliquot was analyzed.

N,N-dimethylcasein [2] = experiment: Rate of product formation over 60 minutes (protein functionalization assay); type: biochemical; set-up: key: −: a reduction in activity; +: an improvement between 1.2 and 2-fold; ++: an improvement between 2 and 5-fold; +++: an improvement greater than 5-fold; conditions: improvement relative to wild-type Tgase (SEQ ID NO: 2); initial rate over 60 min
Method: as §1, §2
Rate was assessed by measuring the rate of product formation over 60 minutes of incubation using a kinetic method to take scans every 60 seconds to determine product formation, using reaction conditions as described in Example 4B. The enzyme produces product at an initial rate that is approximately linear for the first one hour of the reaction. The concentrations of enzyme and substrate are the same across the sample set for each enzyme variant. Enzyme variants with faster initial rates deliver a higher product yield in one hour than variants with slower initial rates produce at the same time-period.
as §3

Molecule	Productivity (N,N-dimethylcasein [1])	Rate (N,N-dimethylcasein [2])
B1	+ (an improvement between 1.2 and 2-fold)	+ (an improvement between 1.2 and 2-fold)
B2	−	+ (an improvement between 1.2 and 2-fold)
B3	−	+ (an improvement between 1.2 and 2-fold)
B4	−	+ (an improvement between 1.2 and 2-fold)
B5	−	++ (an improvement between 2 and 5-fold)
B6	+ (an improvement between 1.2 and 2-fold)	−
B7	+ (an improvement between 1.2 and 2-fold)	−
B8	−	+ (an improvement between 1.2 and 2-fold)
